Measurements: the nanobody polyreactivity screen of Harvey et al. (2022)

Test: yeast display, Sf9 membrane polyspecificity reagent, FACS + sequencing; frameworks hold sequencing errors
How it was run: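 Galactose-induced (36–48 hours) yeast carrying a synthetic nanobody display library were exposed to 10% biotinylated, detergent-solubilized Sf9 membrane reagent at 4 °C for 1 hour. FACS followed streptavidin microbead enrichment, using low and high (top ~1%) gates for expression (anti-HA) and reagent binding (streptavidin). Colony PCR, MiSeq 2 × 250 sequencing and CDR-length filtering followed. Labels for polyreactivity reflect the gate of origin.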

Sequence | polyreactivity (PSR sort gate)
QVQLVESGGGLVQAGGSLRLSCAASGSTFRTYTMGWYRQAPGKERELVAAISSIGSSTFYADSVKGRFTISRDNAKNTVYLQMISLKPEDTAVYYCAAVRRGGGVIYDYWGQGTQVTVSS | high polyreactivity
QVQLVESGGGLVQAGGSLRLSCAASGSTFRTYVMGWYRQAPGKERELVAAITRSGVSTSYADSVKGRFTISRDNAKNTVYLQMNSLKPEDTAVYYCAATKYDDGYSWTHYYYWGQGTQVTVSS | high polyreactivity
QVQLVESGGGLVQAGGSLRLSCAASGSTFRVNAMGWYRQAPGKERELVAAISSSGGITYYADSVKGRFTISRDNAKNTVYLQMNSLKPEDTAVYYCAKGTVIHVLYDYWGQGTQVTVSS | low polyreactivity
QVQLVESGGGLVQAGGSLRLSCAASGSTFRWNAMGWYRQAPGKETELVAAITRSVGSTYYADSVKGRFTISRDNAKNTVYLQMNSLKPEDTAVYYCAADFYYYGFDYWGQGTQVTVSS | low polyreactivity
QVQLVESGGGLVQAGGSLRLSCAASGSTFRWYDMGGYRQAPGKEREFVAAITSSGGSTYYADSVKGRFTISRDNAKNTVYLQMNSLKPEYNAVYYCNRRYQPYSYDYWGQGTQVTVSS | high polyreactivity
QVQLVESGGGLVQAGGSLRLSCAASGSTFRWYTMGWYRQAPGKERELVAAINQSGSRTYYADSVKGRFTISRDNAKNTVYLQMNSLKPEDTAGYYCNAKSYKSPHTYYYWGQGTQVTVSS | high polyreactivity
QVQLVESGGGLVQAGGSLRLSCAASGSTFRYNAMGWYRQAPGKERELVAAINRGGGTDYADSVKGRFTISRDNAKNTVYLQMNSLKPEDTAVYYCAKQFVSYNRWLAYGYWGQGTQVTVSS | low polyreactivity
QVQLVESGGGLVQAGGSLRLSCAASGSTFRYNAMGWYRQAPGKERELVAAINWSGSSTYYADSVKGRVTISRDNAKNTVYLQMNRLKPEDTAVNYCAAERPWYTKWGEYWGQGTQVTVSS | high polyreactivity
QVQLVESGGGLVQAGGSLRLSCAASGSTFRYNAMGWYRQAPGKERELVAAITSSGSRTYYADSVKGRFTISRDNAKNTVYFQMISLKPEDTAVYYCAAYGYYTKVTKYDYWGQGTQVTVSS | high polyreactivity
QVQLVESGGGLVQAGGSLRLSCAASGSTFRYNAMGWYRQAPGKERELVASISYNGGNTYYADSVKGRFTISRDNSKNTVYLQMNSLKPEDTAVYYCAAVPIKRGLILGDRGYNYWGQGTQVTVSS | high polyreactivity
QVQLVESGGGLVQAGGSLRLSCAASGSTFRYNAMGWYRQEPGKERELVAAISSSGGSTRYADSVKGRFTISRDNAKNTVYLQMNSLKPEDTAVYHCAVRFYDWRYYYWGQGTQVTVSS | high polyreactivity
QVQLVESGGGLVQAGGSLRLSCAASGSTFRYNTMGWYRQAPGKERELVARITSVGSTNYADSVKGRFTISRDNAKNTVYLQMNSLKPEDTAVYYCATTRPIRRTSARYNYWGQGTQVTVSS | low polyreactivity
QVQLVESGGGLVQAGGSLRLSCAASGSTFRYYAKGWYRQAPGKERELVAAINYGGGRTYYADSVKGRFTISRDIAKNTVYLQMNSLKPEDTAVYYCATGYYYYRFYTYGYWGQGTQVTVSS | high polyreactivity
QVQLVESGGGLVQAGGSLRLSCAASGSTFRYYALGWYRQAPGKEREVVASISIGGGSTYYADSVKGRFTISRDYAKNTVYVQMNSLKPEDTAVYYCAAERTIRAARPFFRTFDYWGQGTQVTVSS | low polyreactivity
QVQLVESGGGLVQAGGSLRLSCAASGSTFRYYAMGWYRQAPGKEREFVAAINWSGTSTYYADSVKGRFTISRDNAKNTVYLQMNRLKPEDTAVYYCNARYGLRYVRYGEMDYWGQGTQVTVSA | high polyreactivity
QVQLVESGGGLVQAGGSLRLSCAASGSTFRYYAMGWYRQAPGKERELVAAIDWSGGTTYYADSVKGRFTISRDNAKNTFYLQMNSLKPEDTAVYYCAADSSRRIGEDYWGHGTQVTVSS | low polyreactivity
QVQLVESGGGLVQAGGSLRLSCAASGSTFRYYAMGWYRQAPGKERELVAAISRRGGSSYYADSVKGRFTISRDNAKKTVYLQMNSLKPEDTAVYYCNAAASTFTSWIRGPGVCYDYWGQGTQVTVSS | high polyreactivity
QVQLVESGGGLVQAGGSLRLSCAASGSTFRYYAMGWYRQAPGKERELVAAISRSGGRTYYADSVKGRFTISRDNAKNTAYLQMNRLKPEDTAVYYCAVVVWWFTGCLGPYDYWGKGTQVTVSS | high polyreactivity
QVQLVESGGGLVQAGGSLRLSCAASGSTFRYYAMGWYRQAPGKERELVAAISYGGGITNYADSVKGRLTISRDNAKNTVYLQMNSLKPEDTAVYYCAAYDRITRYDYWGQGTQVTVSS | high polyreactivity
QVQLVESGGGLVQAGGSLRLSCAASGSTFRYYAMGWYRQAPGKERELVAAITWSGGRTTYADSVKGRFTISRDNAKNTVYLQMNSLKPEDTAVYYCAAEWHYFVTMYYWGQGTQVTVSS | low polyreactivity
QVQLVESGGGLVQAGGSLRLSCAASGSTFRYYAMGWYRQAPGKERELVAGITRIGGRTYYADSVKGRFTISRDNAKNTVDLQMNSLKPEDTAVYYCAADYGGFLGYDYWGQGTQVTLSS | high polyreactivity
QVQLVESGGGLVQAGGSLRLSCAASGSTFRYYAMGWYRQAPGKERELVASITWSGGSTYYADSVKGRFTISRDNAKNTVYLQMNSLKPEDTAVYYCAARQYIGSPPHRRRFDYWGQGTQVTVSS | high polyreactivity

Sequence | polyreactivity (PSR sort gate)
QVQLVESGGGLVQAGGSLRLSCAASGSTFRYYSMGWYRQAPGKERELVAAITYRGGRTYYADSVKGRFTISRDNAKNTDYLQKNSLKPEDTAVYYCAAKSGRHSMDSSGQGTQVTVSS | low polyreactivity
QVQLVESGGGLVQAGGSLRLSCAASGSTFRYYTMGWYRQAPGKERELVAAISSSGTRTYYADSVKGRFTISRDYAKNTVYLQMNSLKPEDTAVYYCDTVFLRSDGWRRSNMDYWGQGTQVTVSS | high polyreactivity
QVQLVESGGGLVQAGGSLRLSCAASGSTFRYYTMGWYRQAPGKERELVAAITWSGGSTYYADSVKGRFTISRDNAKNTVYLQMNSLKPEDTAVYYCAADRYSYGSNGYPRFEYYYWGQGTQVTVSS | high polyreactivity
QVQLVESGGGLVQAGGSLRLSCAASGSTFSANTMGWYRQAPGKERELVAAISSSGVGTRYADSVKGRFTISRDNAKNTVYLQMNSLKPEDTAVYYCNADLYGGGDKSVISGLNGEYEYWGQGTQVTVSS | low polyreactivity
QVQLVESGGGLVQAGGSLRLSCAASGSTFSANTMGWYRQAPGKQREFVAAISSSGVGTRYADSVKGRFTISRDYAKNTVYLQMNSLKPEDTAVYYCAADYRPTVITRNDYWGQGTQVTVSS | low polyreactivity
QVQLVESGGGLVQAGGSLRLSCAASGSTFSDNAMGWSRQAPGKERELVATIDYDGSTYYADSVKGRFTISRDNAKNTVYLQMNSLRTEDTAVYYCAADVYQVPGPYWSRTYEYDYWGQGTQVTVSS | low polyreactivity
QVQLVESGGGLVQAGGSLRLSCAASGSTFSDNAMGWYRQAPGKERELVAAITSGGSTYYADSVKGRFTISRDNAKNTVYLQMNSLKPEDTAVYYCATGGVTFGSVVRGVDGDYWGQGTQVTVSS | low polyreactivity
QVQLVESGGGLVQAGGSLRLSCAASGSTFSDNAMGWYRQAPGKERELVAGITGGGGTYYADSVKGRFTISRDNAKNTVYLQMNSLKPEDTAVYYCAADTWGTPTPFVHYPEFEHWGQGTQVTVSS | low polyreactivity
QVQLVESGGGLVQAGGSLRLSCAASGSTFSDYAMGWYRQAPGKERELVAAISDSGSGTYYADSVKGRFTISRDNAKNTVYLQMNSLKPEDTAVYYCNTDPRFAMDWGQGTQVTVSS | low polyreactivity
QVQLVESGGGLVQAGGSLRLSCAASGSTFSDYAMGWYRQAPGKERELVAAISGGGTTDYADSVKGRFTISRDNAKNTVYLQMNSLKPEDTAVYYCNKPVEGSFLPYSYLRFDYWGQGTQVTVSS | low polyreactivity
QVQLVESGGGLVQAGGSLRLSCAASGSTFSDYAMGWYRQAPGKERELVAAISYSGGSTYYADSVKGRFTISRDNAKNTVYLQMNSLKPEDTAVYYCAAEYERYFGYDYWGQGTQVTVSS | low polyreactivity
QVQLVESGGGLVQAGGSLRLSCAASGSTFSDYVMGWYRQAPGKERELVAAISWSGDRTYYADSVKGRFTISRDNAKNTVYLQMNSLKPEETAVYYCAAEYAPSEPSYYYGYDYWGQGTQVTVSS | high polyreactivity
QVQLVESGGGLVQAGGSLRLSCAASGSTFSFYTMGWYRQAPGKERELVAAISQSGTSTYYADSVKGRFTISRDNAKNTVFLQMNSLKPEDTAVYYCATVRKFYFHTRWYYYEGGYWGQGTQVTVSS | high polyreactivity
QVQLVESGGGLVQAGGSLRLSCAASGSTFSGNAMGWYRQAPGKERELVAAISSGGDTYYADSVKGRFTNSRDNAKNTVYLQMNSLKPEDTAVYYCNARSTWRHRRDQVDFDYWGQGTQVTVSS | low polyreactivity
QVQLVESGGGLVQAGGSLRLSCAASGSTFSGNAMGWYRQAPGKERELVAAITSGGSTNYADSVKGRFTISRDNAKNTVYLDMNSLKPEDTAVYYCAKRYGYRRYYTASDYWGQGTQVTVSS | low polyreactivity
QVQLVESGGGLVQAGGSLRLSCAASGSTFSGNAMGWYRQAPGKERELVAGIRQSGDSTYYADSVKGRFTISRDNAKNTVYLQMNSLKPEDTAVYDCNARAFPFGTGVQGFGFGYWGQGTQVTVSS | low polyreactivity
QVQLVESGGGLVQAGGSLRLSCAASGSTFSGYTMGWYRQAPGKERELVASISSGVSTYYADSVKGRFTISRDNAKNTVYLQMNSLKPEDTAVYYCAADSVGDYGYQVYASWGYEDEYWGQGTQVTVSS | low polyreactivity
QVQLVESGGGLVQAGGSLRLSCAASGSTFSHYAMGWYRQAPGKERELVAAISTSGGSTYYADSVKGRFTISRDNAKNTVYLQMNSLKPEDTAVYYCAAAVPRQGNYGGYEYWGQGSQVTVSS | high polyreactivity
QVQLVESGGGLVQAGGSLRLSCAASGSTFSHYAMVWYRQAPGKERELVATITGTGVRTYYADSVKGRFTISRDNAKNTVYLQMNSLKPEDTAVSYCAVPPSKRGAQAQPWMDYWGQGTQVTVSS | low polyreactivity
QVQLVESGGGLVQAGGSLRLSCAASGSTFSINAMGWYRQAPGKERELVAAISWRGSGTYYADSVKGRFTISRDNAKNTVYLQMNSLKPEDTAVYYCAAEWDRPLYYPWYVEYDYWGQGTQVTVSS | high polyreactivity
QVQLVESGGGLVQAGGSLRLSCAASGSTFSIYAMGWYRQAPGKERELVAAISSSGGSTYYADSVKGRFTISRDNAKNTFYLQMNSLKPEDTAVYYCNKRKYHVRYDYWGQGTQVTVSS | low polyreactivity
